± gives the uncertainty stated by the source.
Test: amyloid nucleation score (Sup35N fusion, yeast selection) (log enrichment); library NNK3; higher = more nucleation; inactive = no reads after selection
Procedure, shortened: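 On medium lacking adenine and uracil, psi-negative yeast expressing peptides of 20 random codons fused to Sup35N were grown 7 days at 30°C after a 24-hour induction with 100 μM copper sulfate. Illumina sequencing of input and output plasmid inserts gave the reads, and sequences under 100 input reads were excluded. The nucleation score is the DiMSum log enrichment of output over input reads, centred on the mode score of non-aggregating sequences.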

Amyloid nucleation score, 0.665 ± 0.16:
TLTYTKYYHFNCNRTLYESV

Amyloid nucleation score, 0.06 ± 0.69:
THFNGEFWALSTVCMWGGRV

Amyloid nucleation score, 2.66 ± 0.064:
TNYYFALLGYYHLFSSTGHR
TWINFFGTYILWPNFNYSTR

Amyloid nucleation score, 0.185 ± 0.33:
TFNRWCLVFLLMHNVLVCEW

Amyloid nucleation score, 1.19 ± 0.069:
TTRLNFENVNVTLLNYKSMG

Amyloid nucleation score, 0.979 ± 0.14:
TFSNYALNVSAYRVDIFEML

Amyloid nucleation score, 2.46 ± 0.066:
TLNIFVVSFNDYWVSVIIKD

Amyloid nucleation score, inactive:
TDFFG
TDRFNAFSWAVASGFVDFDG
TDTRNINV
TDTTSIMNWEDRPISSLKVD
TELFALGYRSFCARTCATHD
TEPIWWEFGCKYHGYISARS
TESCVDSMVAFHNLPYLFRL
TESPNYLYRI
TFFSYSRTALGATYYSLIIC
TFIFVLVSC
TFLALHNNQQLV
TFLYFNVLRIHFVASS
TFRYCTVLMFAVSFWQFHRC
TFYVLGLDYTWLSATSGDGS
TGDRIWTIGFFGEPNGVLKG
TGMVCNLTWVLYLMLMNRTF
TGVNFGRLLLISRSVLGVC
TGYPGPIKFRRIFYANYYSF
THANEGRCYMVSSVMEVSPL
THFQEPLSESGDRCLDDGYL
THHWKFGSNPSFR
THLSVEFS
TIACS
TIASVKLEFALPPSHLPLGV
TICRCRWGIRPYLALCIHYS
TIEQCGLS
TIFLSSRGVILYTVSCYKFV
TIGSAWFGKLGDGLALFGLF
TILWFSSNETFYAGIHRSCP
TIRYRIQVNSCHESVIAGYT
TISLHFLGTADKPYLSWVAN
TKGTKDRPPYTVVRLQYGNS
TKTISGHCPVLMSVFWSMAL
TKYCSLPHDQDCVHKFITTV
TLARQWSDP
TLCSHYYVV
TLFDRFWVLWNEKWESSGKY
TLGGEMQFVKMFCLLYFNCG
TLGLAVFDNSMDRWYEDVKK
TLGVGP
TLMGLESVSVYFSVGFLSVY
TLSFCWWRFMLVCRGVGGGR
TLVVMEIIQLLSFSHGPFI
TLWYSYHINVPYCL
TLYRGDKTRNFAMGIKLCMT
TMCHGDDLRNHCYSETNSFR
TMGGNVIV
TMHKGLVVMF
TMNLCS
TMSGFYYNSFIRYNLAL
TNMHYMSHYLETTPFTTGMV
TNPLYYRS
TNSGGFRMVIYFFR
TNYYFQNV
TPCYRFNSRYRMTFM
TPMGQCAYHEPVNMVKKALR
TPYILLG
TQGYVFKELAGVSRYTEA
TQPDLV
TRCGFS
TRCTGSYNNYG
TRGLWYQHVDHSTFRLKEST
TRISMSENKVVKREVVATRR
TRKDDFDLSGCSR
TRLTL
TRMDIESGYVLESYSRPSPM
TRNYFNPVSRRGVTVSRGLY
TRRATGYFHFS
TRSWCGDMYSHC
TRTMAVDTVGCSENRDAAGD
TRVTS
TRYKELSFNTVSLVRYCAGG
TSDIAPFRDLLIASA
TSGDMRAVYGLYREIRLVNT
TSGSEDLLYGRDVVVYRSGC
TSPGFYGWMSNSTSSNDIVA
TSPNYTGPMNSCLRAWLWDR
TSRRVCLQ
TSRYIGL
TSSQKDIWQDVYGLLFWAQS
TSTFARDKVDFAVLSLF
TSTNNSRKYSSQRRWMHPLG
TSTRHDGGFMVMWYLLGLTR
TSTYANKALTVLE
TSVGYNRIMFQERNIHPELN
TTRRVGCLMGFLVDFRIKSC
TTSVIAGLW
TVHTNLCAMLMFTGYF
TVLCFSACQENFSSSLRRLY
TVTHALLSYKCHNG
TVTSSFATLNQVYGPHVFVN
TWCSIMDLLVQLRVRNLFGK
TWDMSLT
TWEVYTMCIRNGGVLGLFIF
TWSGQGHR
TWSWVVAASVKLISFKL
TYCERKFTTSGTSYTSQKYF
TYLVMS
TYMCQVFNILDSQKYCYMRR
TYPSEVYFIMFAMFSSTCWS
TYPTYRVWVEEQCRLYDTNR
TYQVILSFYDLWFGRSAYCQ
TYRLAVLS
TYVRHFVIRFMREGRSLGGR
TYVVMGFRCETFRIHNGLRR
TYYNHIRLVYLIGAKRWEEL
VAFDIINRQNIINEWGCWID
VAFVNKCFSD
VAKFYRQ
VAKHNAR
VAKLKRTWTVWLVIYSRKSW
VAQFDRNLKPKVNYAVNELQ
VAWAASARRHMYIPDRDSCA
VCGAVSKPLWIRCTVDPRGR
VCITRMQVRLPTYLRVQSKA

Amyloid nucleation score, 0.092 ± 0.29:
TMVTTNEIT

Amyloid nucleation score, 2.69 ± 0.052:
TYFVVDGYVGMFCLIGDISS

Amyloid nucleation score, -0.065 ± 0.45:
TFSPVGMISLYCYGT

Amyloid nucleation score, 0.005 ± 1.1:
TDSPLRLKRDYSPNSFCRSG

Amyloid nucleation score, 1.99 ± 0.074:
TGARMVLCIFGIYSMYTLHN

Amyloid nucleation score, 1.8 ± 0.066:
TWFTSFYCFSNNAYLYF

Amyloid nucleation score, 0.696 ± 0.27:
TNTSFTIVSYTSYR

Amyloid nucleation score, 1.45 ± 0.13:
TFVNLFIVPGKGQSVTGGCE

Amyloid nucleation score, -0.12 ± 0.53:
TDFPYK

Amyloid nucleation score, 2.23 ± 0.088:
TFIFDFAAFMNMVNGFSVLG

Amyloid nucleation score, 1.34 ± 0.13:
TWMKMSTEWRTLDLDCWNSS

Amyloid nucleation score, 0.594 ± 0.2:
TYFTFSREVKMMVHTNCCLL

Amyloid nucleation score, 0.466 ± 0.23:
TKRCKYCTKGNVQTHTWVAF

Amyloid nucleation score, 1.26 ± 0.12:
TITFSWLAYAVGMQPDNNEV

Amyloid nucleation score, 0.764 ± 0.19:
TSGAANHYLYSSVSWTFFLL

Amyloid nucleation score, 0.704 ± 0.34:
TPRQFSDGCISFNKVTINPQ

Amyloid nucleation score, 0.931 ± 0.22:
TMLRFIYSYDAFRR

Amyloid nucleation score, 0.037 ± 0.39:
TFALFLGWIMPTSGGDTGYY

Amyloid nucleation score, 1.72 ± 0.11:
VCIPYMVVVFISSIP

Amyloid nucleation score, -0.24 ± 1.3:
TSFWGGALEDSATITLECWF

Amyloid nucleation score, 0.828 ± 0.12:
TKNRVYQWMSLSGM

Amyloid nucleation score, 0.481 ± 0.32:
TMGVSLHHIKGPFWSVIYCI

Amyloid nucleation score, 1.49 ± 0.089:
THESATSYLISGFGIGFIWC

Amyloid nucleation score, 1.1 ± 0.14:
VACRFHMCLWLGRVLDYAKN

Amyloid nucleation score, 1.35 ± 0.088:
TFGAVTCMSRCVKSSYNLKW

Amyloid nucleation score, -0.022 ± 0.48:
TNLVAIKYLFT

Amyloid nucleation score, 1.38 ± 0.1:
TVVLSWPMYAECKFSCICMT

Amyloid nucleation score, 1.04 ± 0.11:
TMYIAHGELGFIRNHLDISR

Amyloid nucleation score, 1.13 ± 0.089:
TRNCGRSGYRL

Amyloid nucleation score, 0.589 ± 0.087:
TLVCEDIVYRDLLITSFLYS

Amyloid nucleation score, 0.921 ± 0.23:
TRIFVCVFVCTTPTMHAPIW

Amyloid nucleation score, 0.479 ± 0.2:
TGSSTDLSNYNGLGYLLNNS

Amyloid nucleation score, -0.13 ± 1.1:
TVRWDVSLMFMRPMMYGEPK

Amyloid nucleation score, 1.03 ± 0.089:
TVEVNCCYLEGNVV

Amyloid nucleation score, 0.957 ± 0.14:
TQFISLSGGRTHLSGFLVFG

Amyloid nucleation score, -0.566 ± 1.4:
TIGFIGWWGVFYDTDWLRI

Amyloid nucleation score, 2.19 ± 0.084:
TYVIFCYTVSHDDSHRTLYN
